Patent publication US20230303698A1 (published 2023)

B1: PR003549 (bispecific antibody)
light: DIQMTQSPSTLSASVGDRVTVTCRASQSIYIWLAWYQQKPGKAPNLLIYKASSLETGVPSRFSGSGSGTEFTLTISSLQPDDFATYYCQQYYGSSRTFGQGTKVEIKRTVAAPSVFIFPPSDEQLKSGTASVVCLLNNFYPREAKVQWKVDNALQSGNSQESVTEQDSKDSTYSLSSTLTLSKADYEKHKVYACEVTHQGLSSPVTKSFNRGEC
heavy: EVQLVESGGGLVQPGGSLRLSCAASGFTFSSYWMSWVRQAPGKGLEWVANIKQEGSEKYYVDSVKGRFTISRDNAKNSLYLQMNSLRAEDTAVYYCARDRAVAGAFDIWGQGTMVTVSSASTKGPSVFPLAPSSKSTSGGTAALGCLVKDYFPEPVTVSWNSGALTSGVHTFPAVLQSSGLYSLSSVVTVPSSSLGTQTYICNVNHKPSNTKVDKKVEPKSCDKTHTCPPCPAPEAAGGPSVFLFPPKPKDTLMISRTPEVTCVVVDVSHEDPEVKFNWYVDGVEVHNAKTKPREEQYNSTYRVVSVLTVLHQDWLNGKEYKCKVSNKALGAPIEKTISKAKGQPREPQVYTLPPSREEMTKNQVSLTCLVKGFYPSDIAVEWESNGQPENNYKTTPPVLDSDGSFFLYSKLTVDKSRWQQGNVFSCSVMHEALHNHYTQKSLSLSPGEPKSSDKTHTPPPPPRTEVQLLESGGGLVQLGGSLRLSCAASGFTFSRYAMTWVRQAPEKGLEWVSSISGSGDDTYYGDSVKGRFTISRDNSQNTVYLQMNSLRAEDTAVYFCAKEKAGTTGDYYYNVDVWGQGTTVTVSS
B2: PR003550 (bispecific antibody)
light: DIQMTQSPSTLSASVGDRVTVTCRASQSIYIWLAWYQQKPGKAPNLLIYKASSLETGVPSRFSGSGSGTEFTLTISSLQPDDFATYYCQQYYGSSRTFGQGTKVEIKRTVAAPSVFIFPPSDEQLKSGTASVVCLLNNFYPREAKVQWKVDNALQSGNSQESVTEQDSKDSTYSLSSTLTLSKADYEKHKVYACEVTHQGLSSPVTKSFNRGEC
heavy: EVQLVESGGGLVQPGGSLRLSCAASGFTFSSYWMSWVRQAPGKGLEWVANIKQEGSEKYYVDSVKGRFTISRDNAKNSLYLQMNSLRAEDTAVYYCARDRAVAGAFDIWGQGTMVTVSSASTKGPSVFPLAPSSKSTSGGTAALGCLVKDYFPEPVTVSWNSGALTSGVHTFPAVLQSSGLYSLSSVVTVPSSSLGTQTYICNVNHKPSNTKVDKKVEPKSCDKTHTCPPCPAPEAAGGPSVFLFPPKPKDTLMISRTPEVTCVVVDVSHEDPEVKFNWYVDGVEVHNAKTKPREEQYNSTYRVVSVLTVLHQDWLNGKEYKCKVSNKALGAPIEKTISKAKGQPREPQVYTLPPSREEMTKNQVSLTCLVKGFYPSDIAVEWESNGQPENNYKTTPPVLDSDGSFFLYSKLTVDKSRWQQGNVFSCSVMHEALHNHYTQKSLSLSPGEPKSSDKTHTPPPPPRTEVQLVESGGGVVQPGGSLRLSCAASGFTFSNYAMTWVRQAPEKGLEWVSSISGSGVSTYYADSVKGRFTISRDNSKNTLYLQMTRLTAEDTAVYFCAKEGSSETDDHYYNVDVWGQGTTVTVSS
B3: PR007164 (bispecific antibody)
chain 1: EVQLVESGGGLVQPGGSLRLSCAASGFTFSSYWMSWVRQAPGKGLEWVANIKQEGSEKYYVDSVKGRFTISRDNAKNSLYLQMNSLRAEDTAVYYCARDRAVAGAFDIWGQGTMVTVSSASTKGPSVFPLAPSSKSTSGGTAALGCLVKDYFPEPVTVSWNSGALTSGVHTFPAVLQSSGLYSLSSVVTVPSSSLGTQTYICNVNHKPSNTKVDKKVEPKSC
chain 2: not shown
B4: PR004270 (bispecific antibody)
chain 1: EVQLVESGGGLVQPGGSLRLSCAASGFTFSSYWMSWVRQAPGKGLEWVANIKQEGSEKYYVDSVKGRFTISRDNAKNSLYLQMNSLRAEDTAVYYCARDRAVAGAFDIWGQGTMVTVSSASTKGPSVFPLAPSSKSTSGGTAALGCLVKDYFPEPVTVSWNSGALTSGVHTFPAVLQSSGLYSLSSVVTVPSSSLGTQTYICNVNHKPSNTKVDKKVEPKSC
chain 2: not shown
B5: PR001758, anti-4-1BB heavy-chain antibody 1016P0010B11 (antibody, V domains shown)
VH: EVQLLESGGGLVQLGGSLRLSCAASGFTFSRYAMTWVRQAPEKGLEWVSSISGSGDDTYYGDSVKGRFTISRDNSQNTVYLQMNSLRAEDTAVYFCAKEKAGTTGDYYYNVDVWGQGTTVTVSS
B6: Anti-4-1BB monoclonal antibody utomilumab analog (antibody, V domains shown)
VH: EVQLVQSGAEVKKPGESLRISCKGSGYSFSTYWISWVRQMPGKGLEWMGKIYPGDSYTNYSPSFQGQVTISADKSISTAYLQWSSLKASDTAMYYCARGYGIFDYWGQGTLVTVSS
VL: SYELTQPPSVSVSPGQTASITCSGDNIGDQYAHWYQQKPGQSPVLVIYQDKNRPSGIPERFSGSNSGNTATLTISGTQAMDEADYYCATYTGFGSLAVFGGGTKLTVLG

Biological target: human PD-L1 (human, UniProt Q9NZQ7 19-290)
Sequence (Q9NZQ7 19-290): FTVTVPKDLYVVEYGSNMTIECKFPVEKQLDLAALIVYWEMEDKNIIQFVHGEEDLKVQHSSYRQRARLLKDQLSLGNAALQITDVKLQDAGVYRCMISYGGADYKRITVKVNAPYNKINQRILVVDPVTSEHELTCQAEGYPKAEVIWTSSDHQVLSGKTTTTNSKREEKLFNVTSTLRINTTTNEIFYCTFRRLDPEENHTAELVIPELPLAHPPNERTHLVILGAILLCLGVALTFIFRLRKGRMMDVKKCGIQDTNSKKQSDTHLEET
Experiment: FACS

With B1 as the binder, how does the EC50 read?
The EC50 was 1.56 nM.

For B2, which EC50 is on record?
Its EC50 is 1.11 nM.

Which EC50 does the source give for B3 here?
Its EC50 is 1.93 nM.

For B4, which EC50 is on record?
Its EC50 is 0.963 nM.

Biological target: human 4-1BB (human, UniProt Q07011 24-255)
Experiment: FACS

Which EC50 does the source give for B1 here?
The EC50 was 1.9 nM.

Biological target: T1, cynomolgus monkey 4-1BB (cynomolgus monkey)
T1 chain: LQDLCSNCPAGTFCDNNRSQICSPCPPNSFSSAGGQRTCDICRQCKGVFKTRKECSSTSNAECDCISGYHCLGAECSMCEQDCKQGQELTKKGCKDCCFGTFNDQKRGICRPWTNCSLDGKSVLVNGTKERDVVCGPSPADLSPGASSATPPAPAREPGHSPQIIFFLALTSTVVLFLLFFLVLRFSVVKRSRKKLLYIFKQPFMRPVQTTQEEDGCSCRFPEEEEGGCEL
Experiment: FACS

Which EC50 does the source give for B5 here?
Its EC50 is 0.575 nM.

With B6 as the binder, how does the EC50 read?
Its EC50 is 0.485 nM.
